T1: muCD200R-Fc (Creative Biomart CD200R1-458M) (mouse, UniProt Q9ES57 26-238)
T1 construct: Captured on anti-human IgG Fc for the mouse CD200 measurements; also called Murine CD200R1; immobilized CD200R (muCD200); not shown: Fc of the bought fusion, not described (captured on anti-human IgG Fc)
T1 sequence (looked up): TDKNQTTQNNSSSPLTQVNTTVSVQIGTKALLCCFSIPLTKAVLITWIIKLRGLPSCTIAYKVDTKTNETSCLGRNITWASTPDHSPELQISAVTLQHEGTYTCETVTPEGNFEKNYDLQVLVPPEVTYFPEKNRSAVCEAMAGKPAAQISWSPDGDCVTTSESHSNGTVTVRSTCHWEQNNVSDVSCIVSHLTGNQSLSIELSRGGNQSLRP

B1: DS-192 (human CD200-Fc, K130Y, IgG4 Fc) (Fc fusion)
chain: QVQVVTQDEREQLYTPASLKCSLQNAQEALIVTWQKKKAVSPENMVTFSENHGVVIQPAYKDKINITQLGLQNSTITFWNITLEDEGCYMCLFNTFGFGYISGTACLTVYVQPIVSLHYKFSEDHLNITCSATARPAPMVFWKVPRSGIENSTVTLSHPNGTTSVTSILHIKDPKNQVGKEVICQVLHLGTVTDFKQTVNKGPPCPPCPAPEFLGGPSVFLFPPKPKDTLMISRTPEVTCVVVDVSQEDPEVQFNWYVDGVEVHNAKTKPREEQFNSTYRVVSVLTVLHQDWLNGKEYKCKVSNKGLPSSIEKTISKAKGQPREPQVYTLPPSQEEMTKNQVSLTCLVKGFYPSDIAVEWESNGQPENNYKTTPPVLDSDGSFFLYSRLTVDKSRWQEGNVFSCSVMHEALHNHYTQKSLSLSLGK
notes: also called 13 nM CD200-Fc; ha CD200-IgG4 Fc
B2: Recombinant Human CD200R, His-tagged (Creative Biomart CD200R1-320H) (receptor, UniProt Q8TD46 27-266, looked up)
chain: AAQPNNSLMLQTSKENHALASSSLCMDEKQITQNYSKVLAEVNTSWPVKMATNAVLCCPPIALRNLIIITWEIILRGQPSCTKAYKKETNETKETNCTDERITWVSRPDQNSDLQIRTVAITHDGYYRCIMVTPDGNFHRGYHLQVLVTPEVTLFQNRNRTAVCKAVAGKPAAHISWIPEGDCATKQEYWSNGTVTVKSTCHWEVHNVSTVTCHVSHLTGNKSLYIELLPVPGAKKSAKL
notes: Bought; also called human CD200 receptor; not shown: His tag

Tests used:
[1] = target: T2, Recombinant Cyno CD200R, His-tagged (Creative Biomart CD200R1-3483C) (cynomolgus monkey); assay: SPR, cyno CD200R1 flowed over immobilized CD200-Fc, 25 C, 1:1 fit, mean of 2 experiments with standard deviation
T2 construct: Bought; also called cynomolgus CD200R1; cynomolgus CD200R
Experimental: (§1) For human CD200 constructs: anti-human Fc (GE Healthcare) was covalently immobilized on a BIAcore CM5 sensor chip (Cytiva, BR100530) by amine coupling using a Cytiva kit (BR100839) following the manufacturer's instructions, targeting immobilization of 8,000-11,000 RU. CD200-Fc proteins were diluted to 0.5 μg/mL to 4 μg/mL in running Buffer (1×HBS-EP+pH7.4 (Cytiva BR100669), HEPES Buffered Saline pH 7.4 containing 3 mM EDTA and 0.05% v/v Surfactant P20) and flowed for 25 to 100 seconds at 10 μL/min over the immobilized Anti-Human IgG Fc, with a stabilization time of 60 seconds. Between 35 and 250 RUs of CD200-Fc were captured, with higher RUs used for cynomolgus CD200R binding experiments. […] Analysis temperature was 25° C. This was followed by regeneration of the surface with 30-90 second pulse of 3M MgCl₂ flowed at […] flow rate followed by stabilization of the surface with 60 second flow of running buffer.
(§2) Curves obtained were fitted to 1:1 Langmuir binding model by setting Rmax and RI as local parameters. Rate equations using standard parameters (e.g. ligand concentration, time) were used for iterative curve fitting. […] Means of 2 experiments carried out on the same day are shown with standard deviation. Residue numbering for CD200 proteins refers to the pre-protein, containing a signal peptide which is cleaved during insertion into the endoplasmic reticulum.

[2] = target: T2, Recombinant Cyno CD200R, His-tagged …; assay: SPR, cyno CD200R1 flowed over immobilized CD200-Fc, 25 C, 1:1 fit
Experimental: as §1, §2

[3] = target: B2; assay: SPR, CD200R flowed over immobilized CD200-Fc, 25 C, 1:1 fit
Experimental: as §1, §2

[4] = target: B1; assay: SPR, CD200R flowed over immobilized CD200-Fc, 25 C, 1:1 fit, mean of 2 experiments with standard deviation
Experimental: as §1, §2

[5] = target: B1; assay: SPR (BIAcore)
[6] = target: T1, muCD200R-Fc (Creative Biomart …); assay: SPR, his-tag mouse CD200 monomer flowed over muCD200R-Fc captured on anti-human Fc, 25 C, 1:1 fit, mean of 2 experiments with standard deviation
Experimental: (§3) For mouse CD200 constructs, muCD200R-Fc (Creative Biomart CD200R1-458M) diluted to 1 μg/mL in running buffer was flowed over the immobilized Anti-Human IgG Fc, with CD200 monomers serially diluted and flowed over captured CD200R. Other details were as above. Data analysis: experimental sensorgrams were analyzed in BIAevaluation software (GE Healthcare). The curves obtained were fitted to 1:1 Langmuir binding model by setting Rmax and RI as local parameters. Rate equations using standard parameters (e.g. ligand concentration, time) were used for iterative curve fitting. Closeness of fit was determined by algorithms provided by the manufacturer in the BIAevaluation software, and data accepted if the Chi² value was less than 10% of Rₘₐₓ, and the U value was less than or equal to 15.
as §2

[7] = target: T1, muCD200R-Fc (Creative Biomart …); assay: SPR, his-tag mouse CD200 monomer flowed over muCD200R-Fc captured on anti-human Fc, 25 C, 1:1 fit
Experimental: as §3, §2

[8] = target: T1, muCD200R-Fc (Creative Biomart …); assay: SPR, monomeric binding
Experimental: as §3, §2

Binder | binding result [5] | Kd [6] [nM] | T1/2 [7] [min] | further results
B1 |  |  |  | Kd [1]: 459 nM; T1/2 [2]: 0.32 min; T1/2 [3]: 3.1 min
B2 |  |  |  | Kd [4]: 12.5 nM
Human CD200R1L (receptor, UniProt Q6Q8B3 24-239, looked up, nothing is said of the reagent) GKQMTQNYSTIFAEGNISQPVLMDINAVLCCPPIALRNLIIITWEIILRGQPSCTKAYKKETNETKETNCTVERITWVSRPDQNSDLQIRPVDTTHDGYYRGIVVTPDGNFHRGYHLQVLVTPEVNLFQSRNITAVCKAVTGKPAAQISWIPEGSILATKQEYWGNGTVTVKSTCPWEGHKSTVTCHVSHLTGNKSLSVKLNSGLRTSGSPALSLL | no binding |  |  | 
Mouse CD200R protein (Creative Biomart CD200R1-3280M) (receptor, UniProt Q9ES57 26-238, looked up, also called Murine CD200R1; murine CD200R) TDKNQTTQNNSSSPLTQVNTTVSVQIGTKALLCCFSIPLTKAVLITWIIKLRGLPSCTIAYKVDTKTNETSCLGRNITWASTPDHSPELQISAVTLQHEGTYTCETVTPEGNFEKNYDLQVLVPPEVTYFPEKNRSAVCEAMAGKPAAQISWSPDGDCVTTSESHSNGTVTVRSTCHWEQNNVSDVSCIVSHLTGNQSLSIELSRGGNQSLRP | no binding |  |  | 
Murine wild-type CD200 monomer, his-tag (DS-131), printed in Table 7 as DS-198 (ligand, mouse, UniProt O54901 31-232, looked up, extracellular domain; the match of DS-131 to DS-198 follows the order of the sentence; also called wild type muCD200-Fc (the corresponding IgG2a Fc fusion); not shown: his tag) QVEVVTQDERKALHTTASLRCSLKTSQEPLIVTWQKKKAVSPENMVTYSKTHGVVIQPAYKDRINVTELGLWNSSITFWNTTLEDEGCYMCLFNTFGSQKVSGTACLTLYVQPIVHLHYNYFEDHLNITCSATARPAPAISWKGTGTGIENSTESHFHSNGTTSVTSILRVKDPKTQVGKEVICQVLYLGNVIDYKQSLDKG |  | 584 | 0.288 | 
Murine CD200 H82Y, T125I monomer, his-tag (DS-169), printed in Table 7 as DS-227 (ligand, mouse, UniProt O54901 31-232, looked up, extracellular domain; See the note of m9; not shown: his tag) QVEVVTQDERKALHTTASLRCSLKTSQEPLIVTWQKKKAVSPENMVTYSKTYGVVIQPAYKDRINVTELGLWNSSITFWNTTLEDEGCYMCLFNIFGSQKVSGTACLTLYVQPIVHLHYNYFEDHLNITCSATARPAPAISWKGTGTGIENSTESHFHSNGTTSVTSILRVKDPKTQVGKEVICQVLYLGNVIDYKQSLDKG |  | 43.3 | 1.96 | fold higher affinity than wild type [8]: ~14 fold

Reference: patent publication US20260116951A1 (DUCENTIS BIOTHERAPEUTICS, published 2026)
